Results published in IntAct's records for PubMed 30241482.

B1: Protein ripply3 (Homo sapiens), P57055 (parent)
chain: MEPEAAAGARKARGRGCHCPGDAPWRPPPPRGPESPAPWRPWIQTPGDAELTRTGRPLEPRADQHTFGSKGAFGFQHPVRVYLPMSKRQEYLRSSGEQVLASFPVQATIDFYDDESTESASEAEEPEEGPPPLHLLPQEVGGRQENGPGGKGRDQGINQGQRSSGGGDHWGEGPLPQGVSSRGGKCSSSK
partner: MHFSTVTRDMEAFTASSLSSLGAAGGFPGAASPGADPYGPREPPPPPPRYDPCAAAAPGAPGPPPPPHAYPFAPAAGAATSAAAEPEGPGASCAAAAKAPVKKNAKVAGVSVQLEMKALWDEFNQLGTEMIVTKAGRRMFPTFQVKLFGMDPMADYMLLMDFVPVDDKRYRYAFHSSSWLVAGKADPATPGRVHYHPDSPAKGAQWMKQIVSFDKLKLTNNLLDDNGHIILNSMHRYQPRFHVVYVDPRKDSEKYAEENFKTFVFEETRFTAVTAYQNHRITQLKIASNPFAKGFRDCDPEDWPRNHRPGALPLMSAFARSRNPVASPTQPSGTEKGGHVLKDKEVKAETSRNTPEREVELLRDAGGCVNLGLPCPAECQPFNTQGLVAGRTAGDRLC

Variants of: B1
Settings: with tbx1_human TBX1, O43435

| Variant | effect of a mutation on the interaction |
| --- | --- |
| MEPEAAAGARKARGRGCHCPGDAPWRPPPLRGPESPAPWRPWIQTPGDAELTRTGRPLEPRADQHTFGSKGAFGFQHPVRVYLPMSKRQEYLRSSGEQVLASFPVQATIDFYDDESTESASEAEEPEEGPPPLHLLPQEVGGRQENGPGGKGRDQGINQGQRSSGGGDHWGEGPLPQGVSSRGGKCSSSK [P30L] | with no effect |
| MEPEAAAGARKARGRGCHCPGDAPWRPPPPRGPESPAPWRPWIQTPGDAELSRTGRPLEPRADQHTFGSKGAFGFQHPVRVYLPMSKRQEYLRSSGEQVLASFPVQATIDFYDDESTESASEAEEPEEGPPPLHLLPQEVGGRQENGPGGKGRDQGINQGQRSSGGGDHWGEGPLPQGVSSRGGKCSSSK [T52S] | decreasing interaction strength |

More lines, now with the values ahead:

| effect of a mutation on the interaction | Variant |
| --- | --- |
| with no effect | MEPEAAAGARKARGRGCHCPGDAPWRPPPPRGPESPAPWRPWIQTPGDAELTRTGRPLEPRADQHTFGSKGAFGFQHPVRVYLPMSKRQEYLRSSGEQVLASFPVQATIDFYNDESTESASEAEEPEEGPPPLHLLPQEVGGRQENGPGGKGRDQGINQGQRSSGGGDHWGEGPLPQGVSSRGGKCSSSK [D113N] |
| with no effect | MEPEAAAGARKARGRGCHCPGDAPWRPPPPRGPESPAPWRPWIQTPGDAELTRTGRPLEPRADQHTFGSKGAFGFQHPVRVYLPMSKRQEYLRSSGEQVLASFPVQATIDFYDDESTESASEAEEPEEGPPPLHLLPQEVGGRQENGPGGKGRDQGINQGQRSSGGGDHWGEGPLPQGDSSRGGKCSSSK [V179D] |
